Values quoted from earlier work, collected in paper PMC12298957.

Target: FGFR2 (Homo sapiens) (UniProt P21802)
Sequence of UniProt P21802 (P21802 22-377): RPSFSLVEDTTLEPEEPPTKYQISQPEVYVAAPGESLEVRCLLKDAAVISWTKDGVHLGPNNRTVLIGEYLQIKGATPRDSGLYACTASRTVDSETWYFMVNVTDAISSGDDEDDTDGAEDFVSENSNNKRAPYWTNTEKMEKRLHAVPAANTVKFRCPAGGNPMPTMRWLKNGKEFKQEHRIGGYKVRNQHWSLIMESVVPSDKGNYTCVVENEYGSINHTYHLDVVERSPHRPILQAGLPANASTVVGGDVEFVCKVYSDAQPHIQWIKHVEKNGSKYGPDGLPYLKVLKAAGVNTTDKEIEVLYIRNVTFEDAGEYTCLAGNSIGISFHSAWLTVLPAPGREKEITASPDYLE

For WRARVPL peptide, which Kd is on record?
Its Kd is 1.4 µM.
